# Test results: the Immune Epitope Database (IEDB)
# Biological target: HLA-A*02:01
# Test: IEDB peptide-MHC binding, purified MHC/competitive/radioactivity; ≥ and ≤ were set here for values at or beyond the usual limits of such assays
# Details: source organism: SARS-CoV1
row,Sequence,IC50
1,VMFNGVTFST,8.5 nM
2,YALCTLLHL,8.7 nM
3,YLLGLSAIM,1.1 nM

# Same assay, conditions: source organism: Vaccinia virus WR
row,Sequence,IC50
1,NLLEQLIENI,326 nM
2,PTILATLNTL,1340 nM
3,PTWLGAAITL,4810 nM
4,PVLEKKVCAI,1530 nM
5,QIGGEAIFLI,383 nM
6,QLLKILDNL,441 nM
7,QLVKDESIQL,916 nM
8,QVLQQNNSFI,1470 nM
9,RALKAYFTA,158 nM
10,RIKSVLDII,4700 nM
11,RLFTRCAVI,209 nM
12,RMPTDMLKL,1840 nM
13,SALMTLDDL,1100 nM
14,SALMTLDDLA,249 nM
15,SIKMIYDLNA,1780 nM
16,SILSLETVKM,1310 nM
17,SINITPDDGL,1020 nM
18,SINNQLMYDI,2380 nM
19,SLDQTHIKTI,759 nM
20,SLGKSPLPSL,134 nM
21,SLIYYQNEVT,529 nM
22,SLTQVKELGI,210 nM
23,SLVKESMASL,2360 nM
24,SLVSKHWELT,96 nM
25,SLVYGIRCV,301 nM

row,Sequence,IC50
1,SMMVILPDKI,6.1 nM
2,SMSQELAEL,84 nM
3,SMYVIPDEL,91 nM
4,TILATLNTL,172 nM
5,TLFGRGVIDT,130 nM
6,TLVPVLEKKV,959 nM
7,VIPDELIDV,229 nM
8,VLALYSPPLI,55 nM
9,VLEKKVCAIT,3510 nM
10,VLLPFYETL,7.2 nM
11,VLTSVDIETA,747 nM
12,VMHINSPFKV,13 nM
13,VMPEKRNVV,495 nM
14,VQFSILNNPV,1910 nM
15,VTYNIKPVIV,3000 nM
16,WIKDIMTST,948 nM
17,WLKDSAIMVA,673 nM
18,YIEDELRRAA,573 nM
19,YISRDELWA,750 nM
20,YLGHSAGFT,1560 nM
21,YLGHSAGFTA,21 nM
22,YLLGDSDSVA,20 nM
23,YLLMHLVSL,3.5 nM
24,YLPEVISTIA,29 nM
25,YLSDSDNIKI,53 nM

# Biological target: HLA-A*02:02
# Test: as above
# Details: source organism: Hepacivirus hominis
row,Sequence,IC50
1,RLHGLEAFSL,35 nM
2,RLIVYPDLGV,1.9 nM
3,RLLDLSSWFT,303 nM
4,RLVPGATYAL,12 nM
5,TLLGCWSFVL,80 nM
6,VLAGYGAGI,11 nM
7,VLQAGITRV,98 nM
8,VLWTVFHGA,759 nM
9,VMWKCLIRL,377 nM
10,WMMLLIAQA,53 nM

# Same assay, conditions: source organism: Influenza A virus
row,Sequence,IC50
1,RLIQNSITI,137 nM
2,YLIRALTL,216 nM

# Same assay, conditions: source organism: SARS-CoV1
row,Sequence,IC50
1,RILGAGCFV,24 nM
2,SLVTSFLLM,66 nM
3,SQMETDFLEL,227 nM
4,TLLLWISVKV,549 nM
5,VLTHGLASV,9.6 nM
6,VMFNGVTFST,0.69 nM
7,YALCTLLHL,1320 nM
8,YLLGLSAIM,1.7 nM

# Same assay, conditions: source organism: Vaccinia virus WR
row,Sequence,IC50
1,NLLEQLIENI,836 nM
2,PTILATLNTL,374 nM
3,PTWLGAAITL,1360 nM
4,PVLEKKVCAI,541 nM
5,QIGGEAIFLI,8.2 nM
6,QLLKILDNL,227 nM
7,QLVKDESIQL,157 nM
8,QVLQQNNSFI,544 nM
9,RALKAYFTA,2350 nM
10,RIKSVLDII,111 nM
11,RLFTRCAVI,94 nM
12,RMPTDMLKL,950 nM
13,SALMTLDDL,411 nM
14,SALMTLDDLA,210 nM
15,SIKMIYDLNA,852 nM
